# Data taken from IntAct's records for PubMed 11964151.
# B1: Galactose/lactose metabolism regulatory protein GAL80 (Saccharomyces cerevisiae), P04387 (parent)
# chain: MDYNKRSSVSTVPNAAPIRVGFVGLNAAKGWAIKTHYPAILQLSSQFQITALYSPKIETSIATIQRLKLSNATAFPTLESFASSSTIDMIVIAIQVASHYEVVMPLLEFSKNNPNLKYLFVEWALACSLDQAESIYKAAAERGVQTIISLQGRKSPYILRAKELISQGYIGDINSIEIAGNGGWYGYERPVKSPKYIYEIGNGVDLVTTTFGHTIDILQYMTSSYFSRINAMVFNNIPEQELIDERGNRLGQRVPKTVPDHLLFQGTLLNGNVPVSCSFKGGKPTKKFTKNLVIDIHGTKGDLKLEGDAGFAEISNLVLYYSGTRANDFPLANGQQAPLDPGYDAGKEIMEVYHLRNYNAIVGNIHRLYQSISDFHFNTKKIPELPSQFVMQGFDFEGFPTLMDALILHRLIESVYKSNMMGSTLNVSNISHYSL
# partner: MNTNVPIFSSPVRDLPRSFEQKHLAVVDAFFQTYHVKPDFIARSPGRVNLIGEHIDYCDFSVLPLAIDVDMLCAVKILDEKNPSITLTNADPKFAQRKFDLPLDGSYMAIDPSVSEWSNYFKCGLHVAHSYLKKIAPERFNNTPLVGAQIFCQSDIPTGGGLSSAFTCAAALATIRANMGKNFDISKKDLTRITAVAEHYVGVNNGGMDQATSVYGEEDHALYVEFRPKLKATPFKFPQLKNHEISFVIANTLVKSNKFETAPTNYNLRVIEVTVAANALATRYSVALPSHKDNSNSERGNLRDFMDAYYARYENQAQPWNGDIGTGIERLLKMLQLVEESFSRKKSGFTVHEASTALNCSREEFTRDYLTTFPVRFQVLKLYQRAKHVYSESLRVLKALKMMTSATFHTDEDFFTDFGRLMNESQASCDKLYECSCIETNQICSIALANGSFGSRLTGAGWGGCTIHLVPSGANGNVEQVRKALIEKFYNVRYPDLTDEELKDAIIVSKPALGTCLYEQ
# Variants of: B1
# Settings: with gal3_yeast GAL3, P13045
row,Variant,effect of a mutation on the interaction
1,E351K,decreasing interaction strength
